The target in the experiment is Syk tyrosine kinase (mouse (endogenous in NMuMG)) (UniProt P48025). The experiment is described as follows: co-IP.
Sequence of Syk tyrosine kinase (mouse (endogenous in NMuMG)) (P48025 whole entry): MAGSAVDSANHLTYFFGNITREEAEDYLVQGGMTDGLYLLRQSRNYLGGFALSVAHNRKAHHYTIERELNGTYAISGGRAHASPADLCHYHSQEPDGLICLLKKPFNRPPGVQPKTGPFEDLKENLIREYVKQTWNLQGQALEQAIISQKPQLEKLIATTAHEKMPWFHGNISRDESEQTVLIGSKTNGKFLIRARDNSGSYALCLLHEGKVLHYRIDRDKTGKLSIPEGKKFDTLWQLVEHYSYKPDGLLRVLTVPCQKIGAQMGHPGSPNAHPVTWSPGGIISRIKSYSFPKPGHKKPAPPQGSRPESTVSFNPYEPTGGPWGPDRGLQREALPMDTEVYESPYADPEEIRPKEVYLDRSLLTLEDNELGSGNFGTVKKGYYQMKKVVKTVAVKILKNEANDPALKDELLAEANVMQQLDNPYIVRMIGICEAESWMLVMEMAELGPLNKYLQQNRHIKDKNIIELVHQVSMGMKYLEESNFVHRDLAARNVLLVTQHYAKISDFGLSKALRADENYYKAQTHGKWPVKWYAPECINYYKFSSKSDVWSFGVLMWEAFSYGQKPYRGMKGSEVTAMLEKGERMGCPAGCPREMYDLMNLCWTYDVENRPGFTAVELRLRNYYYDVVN

Sequence of MMTV Env surface unit (SU, gp52) (P03374 99-688): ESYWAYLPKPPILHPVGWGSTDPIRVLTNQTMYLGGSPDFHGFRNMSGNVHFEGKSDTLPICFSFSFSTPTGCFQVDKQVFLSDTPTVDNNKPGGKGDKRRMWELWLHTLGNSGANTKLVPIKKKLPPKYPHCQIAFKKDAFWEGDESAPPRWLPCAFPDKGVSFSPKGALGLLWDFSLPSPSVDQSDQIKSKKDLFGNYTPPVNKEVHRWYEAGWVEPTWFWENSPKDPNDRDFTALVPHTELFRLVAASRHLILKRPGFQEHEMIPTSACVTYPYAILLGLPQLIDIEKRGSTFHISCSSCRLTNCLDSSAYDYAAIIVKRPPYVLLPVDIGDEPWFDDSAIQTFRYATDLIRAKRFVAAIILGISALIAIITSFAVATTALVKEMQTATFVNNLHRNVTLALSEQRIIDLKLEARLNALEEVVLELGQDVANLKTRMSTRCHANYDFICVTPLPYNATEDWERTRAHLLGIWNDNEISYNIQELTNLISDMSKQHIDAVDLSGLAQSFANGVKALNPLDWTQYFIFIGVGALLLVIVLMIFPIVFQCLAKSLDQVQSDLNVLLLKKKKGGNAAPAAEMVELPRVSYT

Consider “MMTV Env surface unit (SU, gp52) (from UniProt P03374 99-454) (natural protein)”, for which the percent of SU coprecipitated with Syk was < 34%.

The values above are taken from publication PMC2213037.
